Test results: patent US20110300138A1 (published 2011)

Experiments:
[1] = target: TSH receptor (TSHR) coated on tubes (human) (UniProt P16473); assay: inhibition of 125I-K1-70 IgG binding to TSHR coated tubes; negative control 0.01 µg/mL in assay buffer
[2] = target: human TSH receptor (full length) coated on ELISA plate wells (human) (UniProt P16473); assay: TSH-biotin binding inhibition ELISA, TSHR coated wells; 0.1 µg/mL in assay buffer; negative control MAb
[3] = target: TSHR (thyroid stimulating hormone receptor), full length human (human) (UniProt P16473); assay: negative control; competitor ^125I-K1-70 IgG, TSHR coated tubes; 10 µg/mL in HBD
[4] = target: TSH receptor (TSHR), full length human, coated on tubes (human) (UniProt P16473); assay: inhibition of 125I-TSH binding to TSHR coated tubes; 0.01 µg/mL, diluted in HBD serum pool; mean of duplicates
[5] = target: TSHR (full length) coated on tubes (human) (UniProt P16473); assay: inhibition of 125I-K1-18 Fab (competitor) binding to TSHR coated tubes; negative control 100 µg/mL in HBD serum
[6] = target: TSH receptor (TSHR), full length human, coated on tubes (human) (UniProt P16473); assay: inhibition of 125I-K1-18 IgG binding to TSHR coated tubes; competitor 125I-K1-18 IgG; negative control sample at 0.01 µg/mL in assay buffer
[7] = target: TSH receptor (full length human TSHR) (human) (UniProt P16473); assay: competition ELISA: inhibition of M22 Fab-peroxidase (competitor) binding to TSHR coated wells; negative control at 10 µg/mL diluted in HBD serum pool
[8] = target: TSHR (thyroid stimulating hormone receptor), full length human (human) (UniProt P16473); assay: negative control; competitor ^125I-K1-70 IgG, TSHR coated tubes; 100 µg/mL in HBD
[9] = target: TSH receptor (TSHR), full length human, coated on tubes (human) (UniProt P16473); assay: inhibition of 125I-K1-18 IgG binding to TSHR coated tubes; competitor 125I-K1-18 IgG; negative control sample at 10 µg/mL in assay buffer
[10] = target: TSH receptor (full length human TSHR) (human) (UniProt P16473); assay: competition ELISA: inhibition of M22 Fab-peroxidase (competitor) binding to TSHR coated wells; negative control at 100 µg/mL diluted in HBD serum pool
[11] = target: TSH receptor (TSHR), full length human, coated on tubes (human) (UniProt P16473); assay: inhibition of 125I-K1-18 IgG binding to TSHR coated tubes; competitor 125I-K1-18 IgG; negative control sample at 1 µg/mL in HBD serum
[12] = target: thyroid stimulating hormone receptor (TSHR), full length human TSHR (human) (UniProt P16473); assay: TSH-biotin competition ELISA, TSHR coated wells; negative control, 1 µg/mL in HBD serum
[13] = target: TSH receptor (full length human TSHR) (human) (UniProt P16473); assay: competition ELISA: inhibition of M22 Fab-peroxidase (competitor) binding to TSHR coated wells; test sample at 1 µg/mL diluted in assay buffer
[14] = target: thyroid stimulating hormone receptor (TSHR), full length human TSHR (human) (UniProt P16473); assay: TSH-biotin competition ELISA, TSHR coated wells; 0.1 µg/mL in HBD serum
[15] = target: thyroid stimulating hormone receptor (TSHR), full length human TSHR (human) (UniProt P16473); assay: TSH-biotin competition ELISA, TSHR coated wells; 10 µg/mL in assay buffer
[16] = target: TSH receptor (full length human TSHR) (human) (UniProt P16473); assay: competition ELISA: inhibition of M22 Fab-peroxidase (competitor) binding to TSHR coated wells; test sample at 0.1 µg/mL diluted in assay buffer
[17] = target: TSHR (thyroid stimulating hormone receptor), full length human (human) (UniProt P16473); assay: competitor ^125I-K1-70 IgG, TSHR coated tubes; 10 µg/mL in assay buffer
[18] = target: human TSH receptor (full length) coated on ELISA plate wells (human) (UniProt P16473); assay: TSH-biotin binding inhibition ELISA, TSHR coated wells; 0.03 µg/mL in assay buffer + 100 µg/mL 5B3 IgG
[19] = target: TSH receptor (full length human TSHR) coated on tubes (human) (UniProt P16473); assay: 125I-TSH binding inhibition read against NIBSC 90/672; mean over 10, 30 and 100 ng/mL, in serum
[20] = target: TSH receptor (TSHR) coated on tubes (human) (UniProt P16473); assay: inhibition of 125I-K1-70 IgG binding to TSHR coated tubes; sample 10 µg/mL in assay buffer
[21] = target: TSH receptor (TSHR), full length human, coated on tubes (human) (UniProt P16473); assay: inhibition of 125I-TSH binding to TSHR coated tubes; 0.001 µg/mL, diluted in assay buffer
[22] = target: TSH receptor (TSHR), full length human, coated on tubes (human) (UniProt P16473); assay: inhibition of 125I-K1-18 IgG (competitor) binding to TSHR coated tubes; test sample at 0.01 µg/mL in assay buffer
[23] = target: TSH receptor (TSHR), full length human, coated on tubes (human) (UniProt P16473); assay: inhibition of 125I-TSH binding to TSHR coated tubes; 1 µg/mL, diluted in HBD serum pool
[24] = target: thyroid stimulating hormone receptor (TSHR), full length, coated on tubes (human) (UniProt P16473); assay: inhibition of 125I-TSH binding, TSHR coated tubes; antibody 0.1 µg/mL in assay buffer; mean of duplicate
[25] = target: TSH receptor (TSHR) coated on tubes (human) (UniProt P16473); assay: inhibition of 125I-K1-70 IgG binding to TSHR coated tubes; sample 0.1 µg/mL in assay buffer
[26] = target: human TSH receptor (full length) coated on ELISA plate wells (human) (UniProt P16473); assay: TSH-biotin binding inhibition ELISA, TSHR coated wells; 10 µg/mL in HBD serum pool
[27] = target: TSH receptor (TSHR), full length human, coated on tubes (human) (UniProt P16473); assay: inhibition of 125I-TSH binding to TSHR coated tubes; 100 µg/mL, diluted in assay buffer

5B3 IgG (antibody) was tested, and the Inhibition of binding (%) [1] was 3.2%, the % inhibition of TSH-biotin binding [2] was -2% and the Inhibition of binding (%) [3] was -1.5%. It also gave an Inhibition of binding (%) [4] of 2.6%, an Inhibition of binding (%) [5] of -1.1% and an Inhibition of binding (%) [6] of -4.2%. It also gave an Inhibition of binding (%) [7] of 4.9%, an Inhibition of binding (%) [8] of -0.9% and an Inhibition of binding (%) [9] of -2.7%. The Inhibition of binding (%) [10] was 3.8%, the Inhibition of binding (%) [11] was -6.2% and the Inhibition of binding (%) [12] was -3.5%.

With 9D33 IgG (antibody) the Inhibition of binding (%) [13] was 60.1%, the Inhibition of binding (%) [14] was 39% and the Inhibition of binding (%) [15] was 84.8%. It also gave an Inhibition of binding (%) [16] of 35.1% and an Inhibition of binding (%) [17] of 41.7%.

With M22 IgG (antibody) the % inhibition of TSH-biotin binding [18] was 43.6% and the mean units/mg [19] was 131 units/mg.

B1: 5C9 IgG (antibody, from another filing, V domains shown)
VH: EVQLVESGGGLIQPGGSLRLSCAASGFTVSSNYMSWVRQAPGKGLEWVSVTYSGGSTSYADSVKGRFTISRDNSKNTLYLQMNSLRAEDTAVYYCARGGRYCSSISCYARSGCDYWGQGTLVTVSS
VL: AIQMTQSPSSLSASVGDRVTITCRASQSISNYLNWYQQKPGKAPKLLIYAASSLQSGVPSRFSGSGSGTDFTLTISSLQPEDFATYYCQQSYSSPSTTFGQGTKLEIK
For B1, the Inhibition of binding (%) [20] was 84.8%, the Inhibition of binding (%) [21] was -11.2% and the Inhibition of binding (%) [22] was 11.7%. For the same molecule, the Inhibition of binding (%) [23] was 24.8%, the Inhibition of binding (%) [24] was 21.3% and the Inhibition of binding (%) [25] was 24.6%. The % inhibition of TSH-biotin binding [26] was 42.6% and the Inhibition of binding (%) [27] was 92.5%.
